B1: AC88 anti-VEGFR2 monoclonal antibody (antibody, human IgG1, kappa, V domains shown)
VH: EVQLVESGGGLVKPGGSLRLSCAASGFTFSSYSMTWVRQAPGKGLEWVSSISSSSSYIYYADSVKGRFTISRDNAKNSLYLQMNSLRAEDTAVYYCAKATSGYMDVWGQGTTVTVSS
VL: DIQMTQSPSSLSASVGDRVTITCQASQDINNYLNWYQQKPGKAPKLLIYDASNLETGVPSRFSGSGSGTDFTLTISSLESEDIATYYCQQHVNYPLTFGGGTKVEIKR
notes: Fully human IgG1 kappa from a hybridoma; also called AC88 antibody; anti-VEGFR2 antibody

What was measured:
[1] = target: VEGFR2 expressed on HUVEC cells (human) (UniProt P35968); experiment: cell-based or functional assay
[2] = target: T1, mouse VEGFR2 (mouse, UniProt P35918 20-762, limits assumed); experiment: not described ("a further study")
T1 construct: Assay and construct of the 'further study' are not described
T1 sequence (P35918 20-762 limits assumed): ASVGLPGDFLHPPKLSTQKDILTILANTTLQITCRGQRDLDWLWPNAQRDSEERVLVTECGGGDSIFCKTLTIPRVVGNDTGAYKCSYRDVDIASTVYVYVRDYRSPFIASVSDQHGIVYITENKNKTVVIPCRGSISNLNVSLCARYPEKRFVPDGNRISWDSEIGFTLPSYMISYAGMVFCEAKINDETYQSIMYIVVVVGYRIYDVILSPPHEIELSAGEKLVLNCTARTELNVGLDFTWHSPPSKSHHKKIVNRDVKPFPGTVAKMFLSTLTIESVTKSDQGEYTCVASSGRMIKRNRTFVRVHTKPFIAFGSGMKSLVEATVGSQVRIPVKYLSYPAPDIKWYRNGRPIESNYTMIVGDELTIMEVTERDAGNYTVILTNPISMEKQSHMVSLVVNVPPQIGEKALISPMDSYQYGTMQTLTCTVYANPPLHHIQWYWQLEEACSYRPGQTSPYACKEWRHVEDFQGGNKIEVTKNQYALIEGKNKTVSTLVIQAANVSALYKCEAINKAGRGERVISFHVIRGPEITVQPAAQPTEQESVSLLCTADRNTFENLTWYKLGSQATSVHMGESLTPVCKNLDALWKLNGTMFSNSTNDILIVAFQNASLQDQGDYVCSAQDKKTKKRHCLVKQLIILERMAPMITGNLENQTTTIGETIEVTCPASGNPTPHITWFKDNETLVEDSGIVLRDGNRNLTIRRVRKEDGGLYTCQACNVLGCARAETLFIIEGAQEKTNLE

VEGFR2 expressed on HUVEC cells (human), sequence (P35968 20-1356): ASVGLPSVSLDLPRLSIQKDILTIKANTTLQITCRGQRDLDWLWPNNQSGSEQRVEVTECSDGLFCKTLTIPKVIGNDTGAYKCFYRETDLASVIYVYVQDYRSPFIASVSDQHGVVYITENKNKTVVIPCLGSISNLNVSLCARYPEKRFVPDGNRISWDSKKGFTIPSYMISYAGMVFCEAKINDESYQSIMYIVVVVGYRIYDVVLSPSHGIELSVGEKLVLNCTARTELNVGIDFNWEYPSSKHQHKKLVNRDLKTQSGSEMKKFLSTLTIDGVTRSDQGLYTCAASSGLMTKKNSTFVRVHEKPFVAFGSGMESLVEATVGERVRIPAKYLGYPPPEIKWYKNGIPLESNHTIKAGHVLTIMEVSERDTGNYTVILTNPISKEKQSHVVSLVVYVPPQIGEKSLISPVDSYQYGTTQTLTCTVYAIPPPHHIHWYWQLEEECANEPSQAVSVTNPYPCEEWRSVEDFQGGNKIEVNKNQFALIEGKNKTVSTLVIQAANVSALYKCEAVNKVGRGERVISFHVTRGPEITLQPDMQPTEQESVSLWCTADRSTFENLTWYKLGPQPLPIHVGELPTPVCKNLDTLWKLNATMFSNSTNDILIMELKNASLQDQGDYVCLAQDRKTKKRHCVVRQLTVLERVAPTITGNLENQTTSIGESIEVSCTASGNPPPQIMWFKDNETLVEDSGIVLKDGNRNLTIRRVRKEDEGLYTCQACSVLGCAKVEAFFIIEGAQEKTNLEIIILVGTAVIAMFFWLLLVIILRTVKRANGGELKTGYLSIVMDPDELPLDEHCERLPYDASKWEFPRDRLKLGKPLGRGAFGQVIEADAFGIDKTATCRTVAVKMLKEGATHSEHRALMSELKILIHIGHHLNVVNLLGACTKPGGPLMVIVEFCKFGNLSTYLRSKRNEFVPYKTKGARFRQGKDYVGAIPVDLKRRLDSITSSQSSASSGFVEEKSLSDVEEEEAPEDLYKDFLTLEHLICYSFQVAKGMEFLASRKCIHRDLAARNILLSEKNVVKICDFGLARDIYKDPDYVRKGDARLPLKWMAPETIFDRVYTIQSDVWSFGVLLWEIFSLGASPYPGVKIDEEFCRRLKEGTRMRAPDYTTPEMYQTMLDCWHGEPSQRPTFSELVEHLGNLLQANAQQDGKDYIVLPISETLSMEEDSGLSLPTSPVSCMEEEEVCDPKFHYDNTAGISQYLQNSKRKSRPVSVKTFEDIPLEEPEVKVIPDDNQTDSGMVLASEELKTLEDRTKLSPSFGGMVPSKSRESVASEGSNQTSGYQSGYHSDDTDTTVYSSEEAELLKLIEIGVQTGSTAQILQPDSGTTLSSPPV

Row | Molecule | HUVEC proliferation (VEGF-induced, cell count after 48 hours) [1] [µg/mL] | binding result [2]
1 | normal IgG (antibody) | 1 | –
2 | B1 | – | no binding

Reference: patent US20110038874A1 (SHANGHAI AOSAIERSI BIOTECH, published 2011)
